Usually Kd stands for the equilibrium constant for the complex coming apart. Usually koff stands for the first-order rate constant of dissociation. A word on the kon: it is the second-order rate constant of association.

The values that follow come from patent US20090136936A1 (RESEARCH DEVELOPMENT FOUNDATION, published 2009).

The labels stand for the following.
B1: dsbA-FcγRIIa-His (receptor, Homo sapiens, UniProt P12318 34-217, looked up)
receptor chain: QAAAPPKAVLKLEPPWINVLQEDSVTLTCQGARSPESDSIQWFHNGNLIPTHTQPSYRFKANNNDSGEYTCQTGQTSLSDPVHLTVLSEWLVLQTPHLEFQEGETIMLRCHSWKDKPLVKVTFFQNGKSQKFSHLDPTFSIPQANHSHSGDYHCTGNIGYTLFSSKPVTITVQVPSMGSSSPMG
notes: soluble mature form, exported to the E. coli periplasm by the dsbA signal; also called product of pTrcdsbAHis-FcγRIIa
B2: Fc217 (LGDGSPCKAN insertion between N297 and S298), aglycosylated Fc mutant (other)
chain: DKTHTCPPCPAPELLGGPSVFLFPPKPKDTLMISRTPEVTCVVVDVSHEDPEVKFNWYVDGVEVHNAKTKPREEQYNLGDGSPCKANSTYRVVSVLTVLHQDWLNGKEYKCKVSNKALPAPIEKTISKAKGQPREPQVYTLPPSRDELTKNQVSLTCLVKGFYPSDIAVEWESNGQPENNYKTTPPVLDSDGSFFLYSKLTVDKSRWQQGNVFSCSVMHEALHNHYTQKSLSLSPGK
B3: Fc209 (F241L, K326E, EVPLVWMWVS insertion between N297 and S298), aglycosylated Fc mutant (other)
chain: DKTHTCPPCPAPELLGGPSVLLFPPKPKDTLMISRTPEVTCVVVDVSHEDPEVKFNWYVDGVEVHNAKTKPREEQYNEVPLVWMWVSSTYRVVSVLTVLHQDWLNGKEYKCKVSNEALPAPIEKTISKAKGQPREPQVYTLPPSRDELTKNQVSLTCLVKGFYPSDIAVEWESNGQPENNYKTTPPVLDSDGSFFLYSKLTVDKSRWQQGNVFSCSVMHEALHNHYTQKSLSLSPGK
B4: Fc207 (QLISHYRHLT insertion between N297 and S298), aglycosylated Fc mutant (other)
chain: B2 chain with L78Q, G79L, D80I, G81S, S82H, P83Y, C84R, K85H, A86L, N87T
B5: Fc216 (WQVFNKYTKP insertion between N297 and S298), aglycosylated Fc mutant (other)
chain: B2 chain with L78W, G79Q, D80V, G81F, S82N, P83K, C84Y, K85T, A86K, N87P
B6: Recombinant human FcγRI/CD64, extracellular domain, glycosylated (receptor, UniProt P12314 16-292, looked up)
chain: QVDTTKAVITLQPPWVSVFQEETVTLHCEVLHLPGSSSTQWFLNGTATQTSTPSYRITSASVNDSGEYRCQRGLSGRSDPIQLEIHRGWLLLQVSSRVFTEGEPLALRCHAWKDKLVYNVLYYRNGKAFKFFHWNSNLTILKTNISHNGTYHCSGMGKHRYTSAGISVTVKELFPAPVLNASVTSPLLEGNLVTLSCETKLLLQRPGLQLYFSFYMGSKTLRGRNTSSEYQILTARREDSGLYWCEAATEDGNVLKRSPELELQVLGLQLPTPVWFH
notes: extracellular domain; also called FcγRIa; FcγRIa-FITC
B7: Fc12 (N361D, E382V, M428I), aglycosylated Fc mutant (other)
chain: DKTHTCPPCPAPELLGGPSVFLFPPKPKDTLMISRTPEVTCVVVDVSHEDPEVKFNWYVDGVEVHNAKTKPREEQYNSTYRVVSVLTVLHQDWLNGKEYKCKVSNKALPAPIEKTISKAKGQPREPQVYTLPPSRDELTKDQVSLTCLVKGFYPSDIAVEWVSNGQPENNYKTTPPVLDSDGSFFLYSKLTVDKSRWQQGNVFSCSVIHEALHNHYTQKSLSLSPGK
B8: Fc49 (C229R, E382V, M428I), aglycosylated Fc mutant (other)
chain: B7 chain with C9R, D141N
notes: also called aglycosylated-Fc49
B9: Fc106 (E382T, N384D, M428I), aglycosylated Fc mutant (other)
chain: B7 chain with D141N, V162T, N164D
B10: Fc100 (other)
Fc chain: B7 chain with D141N, E160T, V162M, N164E, I208M
B11: Fc20 (N361D, F372L, E382V, M428I), aglycosylated Fc mutant (other)
chain: B7 chain with F152L
B12: Fc151 (E382V, S426I, M428L, E430S), aglycosylated Fc mutant (other)
chain: B7 chain with D141N, S206I, I208L, E210S
B13: Fc23 (H310Y, K322R, T350A, E382V, S426T, S442P), aglycosylated Fc mutant (other)
chain: B7 chain with H90Y, K102R, T130A, D141N, S206T, I208M, S222P
B14: Fc147 (other)
Fc chain: B7 chain with C9R, D141N
B15: Fc143 (P238S, E382V, S426V, M428L, E430H), aglycosylated Fc mutant (other)
chain: B7 chain with P18S, D141N, S206V, I208L, E210H
B16: Fc114 (N361S, E382V, M428I), aglycosylated Fc mutant (other)
chain: B7 chain with D141S
B17: Fc102 (other)
Fc chain: B7 chain
B18: Fc152 (H224R, E382V, S426T, M428S, E430P), aglycosylated Fc mutant (other)
chain: B7 chain with H4R, D141N, S206T, I208S, E210P
B19: Fc149 (E380D, E382V, N384R, S426V, M428L, E430D), aglycosylated Fc mutant (other)
chain: B7 chain with D141N, E160D, N164R, S206V, I208L, E210D

Residue numbers refer to the chain shown, from its start. In names and notes the source's numbering stands.

One assay deals with Protein A-FITC (Staphylococcus aureus, UniProt P38507 37-477). Nature of the assay: flow cytometry of spheroplasts, PMT 700V, TB with 0.5M trehalose, labeling with Protein A-FITC [panel a]. Background: In flow cytometry, cells or beads pass a laser one at a time.
The target of assay [1] is T1, extracellular domain of aglycosylated FcγRIIIa purified from E. coli inclusion bodies, FITC-labeled (human, UniProt P08637 17-208).
T1 construct: extracellular domain; also called FcγRIIIa-FITC
Nature of the assay: flow cytometry of spheroplasts displaying the Fc, labelled with FcγRIIIa-FITC.

In another assay the target is T2, BSA (Bos taurus, UniProt P02769).
T2 construct: also called BSA coated
Nature of the assay: fluorescence ELISA: BSA coated wells, FITC labeled FcγRIa serially diluted 4-fold [panel b]. (In general: ELISA stands for enzyme-linked immunosorbent assay.)

The target of assay [2] is B6. Kind of assay: flow cytometry of spheroplasts displaying the Fc, labelled with FcγRIa-FITC [panel b].
For assay [3], the target named is B6. Kind of assay: SPR (BIAcore 3000), FcγRIa immobilized on CM-5.
Assay [4] deals with B6. Nature of the assay: flow cytometry of spheroplasts displaying the Fc clone, labelled with FcγRIa-FITC; the value is repeated on D00019 and D00020.

T1 sequence (P08637 17-208): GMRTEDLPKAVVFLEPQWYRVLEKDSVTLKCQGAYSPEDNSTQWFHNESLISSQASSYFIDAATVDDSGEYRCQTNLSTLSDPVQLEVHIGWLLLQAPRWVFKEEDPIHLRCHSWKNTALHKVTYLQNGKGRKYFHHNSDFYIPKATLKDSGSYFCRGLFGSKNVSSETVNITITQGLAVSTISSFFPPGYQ
T2 sequence (P02769 25-607 limits assumed): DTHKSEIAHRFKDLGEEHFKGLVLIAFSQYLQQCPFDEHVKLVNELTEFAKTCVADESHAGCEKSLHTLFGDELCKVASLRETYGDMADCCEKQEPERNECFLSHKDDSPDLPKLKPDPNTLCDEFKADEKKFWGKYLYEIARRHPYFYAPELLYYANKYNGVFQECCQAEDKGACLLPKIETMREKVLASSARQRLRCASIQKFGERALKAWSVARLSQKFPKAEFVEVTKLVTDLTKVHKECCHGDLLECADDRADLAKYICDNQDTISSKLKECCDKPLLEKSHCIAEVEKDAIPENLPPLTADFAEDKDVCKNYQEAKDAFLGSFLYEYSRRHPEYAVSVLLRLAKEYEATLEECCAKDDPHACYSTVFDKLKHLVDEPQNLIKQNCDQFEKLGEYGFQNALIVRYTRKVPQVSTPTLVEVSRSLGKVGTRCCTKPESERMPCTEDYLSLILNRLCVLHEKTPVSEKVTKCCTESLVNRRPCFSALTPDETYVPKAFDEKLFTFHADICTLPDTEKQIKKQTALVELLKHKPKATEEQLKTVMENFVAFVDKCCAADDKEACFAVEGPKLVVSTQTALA

On to B1, for which, in the assay with Protein A-FITC, the binding result was “no binding”.
Take B2: the “M (mean fluorescence intensity)” value in assay [1] was found to be 500.
In the case of B3, the “M (mean fluorescence intensity)” value in assay [1] turned out to be 291.
Regarding B4, in assay [1], the “M (mean fluorescence intensity)” value was 143.
As for B5, in assay [1], the “M (mean fluorescence intensity)” value worked out at 496.
B6: the binding result with BSA is “no binding”.
Turning to B7, in assay [2], the “M (mean fluorescence intensity)” value came to 307.
For B8, in assay [3], the equilibrium dissociation constant (Kd) was determined as 92 nM, the off-rate constant (koff) is 0.0023 s⁻¹ and the kon is 25000 M⁻¹ s⁻¹. Besides, the “M (mean fluorescence intensity)” value in assay [2] is 409.
With B9, the FACS mean value in assay [4] was determined as 269.
For the molecule B10, the FACS mean value in assay [4] came out at 138.
As for B11, the “M (mean fluorescence intensity)” value in assay [2] worked out at 295.
Consider B12, for which, in assay [4], the FACS mean value is 326.
For B13, the “M (mean fluorescence intensity)” value in assay [2] amounted to 335.
Regarding B14, the FACS mean value in assay [4] is 464.
For B15, in assay [4], the FACS mean value was 211.
With B16, the FACS mean value in assay [4] stood at 370.
In the case of B17, the FACS mean value in assay [4] was 374.
With B18, the FACS mean value in assay [4] was found to be 173.
Consider B19, for which the FACS mean value in assay [4] is 140.
